Source: PMC12597760
Read-outs that look alike come from different tables or passages of the source.

Experiments:
TGF-β2 [1] = molecular target: TGF-β2
TGF-β1 [2] = molecular target: TGF-β1
Target sequence in this assay (P01137 279-390): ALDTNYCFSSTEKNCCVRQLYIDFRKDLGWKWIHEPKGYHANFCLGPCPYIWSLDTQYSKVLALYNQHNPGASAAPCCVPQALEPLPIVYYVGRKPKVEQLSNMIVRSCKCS

TGF-β2 [3] = molecular target: TGF-β2; remark: listed apart in the source
Target sequence in this assay (P61812 303-414): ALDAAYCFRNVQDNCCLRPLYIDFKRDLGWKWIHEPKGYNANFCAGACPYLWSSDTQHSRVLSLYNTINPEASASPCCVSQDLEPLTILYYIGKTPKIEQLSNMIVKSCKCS

TGF-β1 [4] = molecular target: TGF-β1; remark: listed apart in the source
Synagis-T22d35 = Synagis-T22d35 (UniProt P37173); experiment: SPR
Synagis = experiment: SPR
TGF-β1 [5] = molecular target: TGF-β1; remark: listed apart in the source
Target sequence in this assay (P01137 279-390): as the sequence (P01137 279-390) above

Synagis, sequence (heavy, as listed by the source, chain 1 of 2): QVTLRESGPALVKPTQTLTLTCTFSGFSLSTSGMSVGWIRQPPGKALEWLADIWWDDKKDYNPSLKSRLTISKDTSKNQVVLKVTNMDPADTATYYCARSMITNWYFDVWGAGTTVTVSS
Synagis, sequence (light, as listed by the source, chain 2 of 2): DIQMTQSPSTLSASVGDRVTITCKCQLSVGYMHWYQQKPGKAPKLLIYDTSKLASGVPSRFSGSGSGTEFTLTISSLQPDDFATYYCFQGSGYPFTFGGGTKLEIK
RSV-F, sequence (P03420 26-574): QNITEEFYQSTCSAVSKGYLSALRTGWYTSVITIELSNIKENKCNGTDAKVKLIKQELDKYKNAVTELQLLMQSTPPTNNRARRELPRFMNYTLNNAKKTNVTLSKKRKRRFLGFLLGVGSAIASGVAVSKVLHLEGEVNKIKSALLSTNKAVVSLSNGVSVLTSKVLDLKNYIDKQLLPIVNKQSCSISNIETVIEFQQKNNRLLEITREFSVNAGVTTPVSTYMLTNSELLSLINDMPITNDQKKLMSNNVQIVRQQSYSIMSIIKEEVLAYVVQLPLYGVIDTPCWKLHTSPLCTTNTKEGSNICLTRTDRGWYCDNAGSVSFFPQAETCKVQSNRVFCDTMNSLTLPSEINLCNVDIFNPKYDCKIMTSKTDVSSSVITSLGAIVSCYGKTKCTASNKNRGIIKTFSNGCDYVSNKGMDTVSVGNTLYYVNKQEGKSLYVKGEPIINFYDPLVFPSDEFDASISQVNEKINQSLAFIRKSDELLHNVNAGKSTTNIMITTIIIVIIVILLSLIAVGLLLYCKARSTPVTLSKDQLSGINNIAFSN
Avastin-T22d35, sequence (P37173 whole entry, looked up): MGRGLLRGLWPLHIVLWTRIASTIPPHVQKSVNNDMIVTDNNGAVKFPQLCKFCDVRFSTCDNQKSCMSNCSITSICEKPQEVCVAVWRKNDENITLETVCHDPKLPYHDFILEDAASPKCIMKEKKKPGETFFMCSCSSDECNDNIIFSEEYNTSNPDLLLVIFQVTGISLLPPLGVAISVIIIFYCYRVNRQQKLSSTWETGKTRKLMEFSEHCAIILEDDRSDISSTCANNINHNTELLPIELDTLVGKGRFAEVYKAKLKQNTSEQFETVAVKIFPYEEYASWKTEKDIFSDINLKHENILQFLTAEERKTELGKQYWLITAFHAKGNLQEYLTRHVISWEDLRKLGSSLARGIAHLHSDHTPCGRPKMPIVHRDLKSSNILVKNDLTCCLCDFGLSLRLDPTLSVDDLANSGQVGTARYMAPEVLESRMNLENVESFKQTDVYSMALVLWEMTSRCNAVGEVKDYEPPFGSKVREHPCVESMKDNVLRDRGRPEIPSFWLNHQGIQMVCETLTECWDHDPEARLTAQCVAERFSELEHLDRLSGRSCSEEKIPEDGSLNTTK
T22d35 (single-chain fusion of two TGF-β type II receptor ectodomains), sequence (P37173 other isoform, or with tags, fused parts or gaps): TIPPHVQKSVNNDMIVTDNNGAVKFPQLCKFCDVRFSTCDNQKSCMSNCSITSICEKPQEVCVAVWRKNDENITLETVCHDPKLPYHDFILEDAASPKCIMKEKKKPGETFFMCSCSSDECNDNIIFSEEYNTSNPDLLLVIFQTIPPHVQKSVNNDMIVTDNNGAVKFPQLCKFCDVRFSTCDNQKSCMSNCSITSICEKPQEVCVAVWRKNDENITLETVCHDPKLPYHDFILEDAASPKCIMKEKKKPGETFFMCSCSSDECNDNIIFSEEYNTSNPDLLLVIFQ
T22d35-hIgG2Fc(CC)ΔK, sequence (P37173 other isoform, or with tags, fused parts or gaps mutant): as the sequence (P37173 other isoform, or with tags, fused parts or gaps) above
hIgG2Fc(CC)ΔK-T22d35, sequence (P37173 other isoform, or with tags, fused parts or gaps mutant): as the sequence (P37173 other isoform, or with tags, fused parts or gaps) above

Avastin-T22d35 (from UniProt P37173 23-166; P37173 23-166) (antibody)
IC50 (nM) of neutralization of TGF-β2 (10 pM), A549 IL-11 release assay (TGF-β2 [1]): 2.99 nM
IC50 (nM) of neutralization of TGF-β3 (10 pM), A549 IL-11 release assay (TGF-β3): 0.00276 nM

T22d35-hIgG2Fc(CC)ΔK (from UniProt P37173 23-166; P37173 23-166) (Fc fusion)
IC50 (nM) of neutralization of TGF-β1 (10 pM), A549 IL-11 release assay (TGF-β1 [2]): 0.00331 nM
IC50 (nM) of neutralization of TGF-β2 (10 pM), A549 IL-11 release assay (TGF-β2 [3]): 4.76 nM

FC5VHH-Fc-T2m (from UniProt P37173 23-166) (Fc fusion)
IC50 (nM) of neutralization of TGF-β1 (10 pM), A549 IL-11 release assay (TGF-β1 [4]): 0.00569 nM

hIgG2Fc(CC)ΔK-T22d35 (from UniProt P37173 23-166; P37173 23-166) (Fc fusion)
IC50 (nM) of neutralization of TGF-β2 (10 pM), A549 IL-11 release assay (TGF-β2 [3]): 1.41 nM

RSV-F (from UniProt P03420 26-574) (natural protein)
Kd (Synagis-T22d35): 4.1 nM
koff (Synagis-T22d35): 0.00142 s⁻¹
kon (Synagis-T22d35): 35500 M⁻¹ s⁻¹
Kd (Synagis): 6.6 nM
koff (Synagis): 0.00168 s⁻¹
kon (Synagis): 25700 M⁻¹ s⁻¹

Herceptin-T22d35 (from UniProt P37173 23-166; P37173 23-166) (antibody)
IC50 (nM) of neutralization of TGF-β2 (10 pM), A549 IL-11 release assay (TGF-β2 [1]): 4.35 nM
IC50 (nM) of neutralization of TGF-β3 (10 pM), A549 IL-11 release assay (TGF-β3): 0.00249 nM

T22d35 (single-chain fusion of two TGF-β type II receptor ectodomains) (from UniProt P37173 23-166; P37173 23-166) (domain or fragment)
IC50 (nM) of neutralization of TGF-β1 (10 pM), A549 IL-11 release assay (TGF-β1 [2]): 3.25 nM
IC50 of neutralization of TGF-β1, A549 IL-11 release assay (Figure 2B) (TGF-β1 [5]): 0.5 nM

Cetuximab-T2m (from UniProt P37173 23-166) (antibody)
IC50 (nM) of neutralization of TGF-β3 (10 pM), A549 IL-11 release assay (TGF-β3): 0.0332 nM

Cetuximab-T22d35 (from UniProt P37173 23-166; P37173 23-166) (antibody)
IC50 (nM) of neutralization of TGF-β2 (10 pM), A549 IL-11 release assay (TGF-β2 [1]): 3.33 nM
IC50 (nM) of neutralization of TGF-β3 (10 pM), A549 IL-11 release assay (TGF-β3): 0.00428 nM

FC5VHH-Fc-T22d35 (from UniProt P37173 23-166; P37173 23-166) (Fc fusion)
IC50 (nM) of neutralization of TGF-β1 (10 pM), A549 IL-11 release assay (TGF-β1 [4]): 0.00235 nM
